Assay results as given in paper PMC9433092, “Closely related type II-C Cas9 orthologs recognize diverse PAMs”.

Legend:
Nsp2Cas9 = target: T1, Nsp2Cas9 (Neisseria sp. WF04, UniProt A0A4Y9GBC9); assay: HEK293T cells; conditions: tags: NLS and HA tags, kept
T1 sequence: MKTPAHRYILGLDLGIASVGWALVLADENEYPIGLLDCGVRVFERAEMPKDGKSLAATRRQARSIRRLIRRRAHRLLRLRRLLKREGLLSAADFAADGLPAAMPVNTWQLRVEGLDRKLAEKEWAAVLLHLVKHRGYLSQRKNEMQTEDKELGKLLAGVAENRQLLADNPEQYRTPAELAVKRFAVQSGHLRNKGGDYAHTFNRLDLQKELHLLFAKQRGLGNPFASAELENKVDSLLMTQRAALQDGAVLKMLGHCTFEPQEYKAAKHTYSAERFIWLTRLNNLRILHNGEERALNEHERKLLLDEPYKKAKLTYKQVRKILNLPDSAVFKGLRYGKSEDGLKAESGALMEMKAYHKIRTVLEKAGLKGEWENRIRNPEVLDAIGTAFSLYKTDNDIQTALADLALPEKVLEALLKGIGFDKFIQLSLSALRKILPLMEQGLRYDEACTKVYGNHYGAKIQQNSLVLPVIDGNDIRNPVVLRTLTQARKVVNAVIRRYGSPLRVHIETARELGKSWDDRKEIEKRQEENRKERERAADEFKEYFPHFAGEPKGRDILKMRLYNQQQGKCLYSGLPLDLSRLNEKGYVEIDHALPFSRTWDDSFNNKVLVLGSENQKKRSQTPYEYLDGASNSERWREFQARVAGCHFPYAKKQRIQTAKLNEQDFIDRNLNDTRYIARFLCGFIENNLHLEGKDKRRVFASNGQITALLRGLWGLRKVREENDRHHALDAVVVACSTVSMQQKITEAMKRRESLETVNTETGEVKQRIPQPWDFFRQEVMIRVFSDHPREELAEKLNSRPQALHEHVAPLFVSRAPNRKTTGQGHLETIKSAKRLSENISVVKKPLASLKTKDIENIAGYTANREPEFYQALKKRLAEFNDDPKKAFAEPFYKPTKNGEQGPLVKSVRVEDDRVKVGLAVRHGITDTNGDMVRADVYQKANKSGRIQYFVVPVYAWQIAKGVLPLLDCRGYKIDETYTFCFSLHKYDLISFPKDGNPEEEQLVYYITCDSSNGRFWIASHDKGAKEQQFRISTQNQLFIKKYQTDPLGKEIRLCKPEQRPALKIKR

Nsp2-SmuCas9 = target: T2, Nsp2-SmuCas9 (synthetic); assay: HEK293T cells; conditions: tags: NLS and HA tags, kept
T2 chain: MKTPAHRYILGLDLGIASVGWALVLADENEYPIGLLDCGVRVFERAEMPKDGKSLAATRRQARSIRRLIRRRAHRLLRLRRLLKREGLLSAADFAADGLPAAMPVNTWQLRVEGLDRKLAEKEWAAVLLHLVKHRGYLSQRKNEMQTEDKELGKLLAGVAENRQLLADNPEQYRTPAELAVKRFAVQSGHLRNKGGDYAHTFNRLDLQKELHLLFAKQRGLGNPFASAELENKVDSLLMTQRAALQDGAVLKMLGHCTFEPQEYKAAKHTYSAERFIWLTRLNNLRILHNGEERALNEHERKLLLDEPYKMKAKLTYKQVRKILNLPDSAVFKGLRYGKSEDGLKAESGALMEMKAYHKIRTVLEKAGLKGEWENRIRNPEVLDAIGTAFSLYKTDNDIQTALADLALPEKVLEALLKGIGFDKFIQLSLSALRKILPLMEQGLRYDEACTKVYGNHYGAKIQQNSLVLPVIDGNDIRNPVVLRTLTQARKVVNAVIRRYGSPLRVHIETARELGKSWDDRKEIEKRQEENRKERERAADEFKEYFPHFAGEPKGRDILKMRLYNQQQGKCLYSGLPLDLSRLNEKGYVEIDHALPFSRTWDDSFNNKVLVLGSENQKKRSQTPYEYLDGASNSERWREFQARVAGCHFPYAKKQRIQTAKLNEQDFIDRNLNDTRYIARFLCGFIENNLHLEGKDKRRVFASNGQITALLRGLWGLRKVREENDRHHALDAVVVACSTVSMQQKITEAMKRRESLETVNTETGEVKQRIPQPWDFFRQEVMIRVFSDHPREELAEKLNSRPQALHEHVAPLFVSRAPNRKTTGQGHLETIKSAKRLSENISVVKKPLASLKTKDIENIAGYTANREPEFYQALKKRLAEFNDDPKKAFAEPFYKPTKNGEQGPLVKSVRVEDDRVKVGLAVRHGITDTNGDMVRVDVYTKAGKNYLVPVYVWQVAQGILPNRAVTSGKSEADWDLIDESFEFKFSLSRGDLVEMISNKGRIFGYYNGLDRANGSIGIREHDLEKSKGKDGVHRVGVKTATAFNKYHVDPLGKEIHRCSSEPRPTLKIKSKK

Row | Binder | indel frequency (Nsp2Cas9) [% indels] | indel frequency (Nsp2-SmuCas9) [% indels]
1 | VEGFA V54 (mixed) RNA: GCUGUCCCCUCCUGAGCCCAUGGGUUGUAGCUCCCUUUCUCAUUUCGGAAACGAAAUGAGAACCGUUGCUACAAUAAGGCCGUCUGAAAAGAUGUGCCGCAACGCUCUGCCCCUUAAAGCUUCUGCUUUAAGGGGCAUCGUUUAUUUUUUU DNA 1: CTGTCCCCTCCTGAGCCCATGGGCAACCAT DNA 2: ATGGTTGCCCATGGGCTCAGGAGGGGACAG | 37 | –
2 | EMX1 TS10 (mixed) RNA: GACUGACUGGAUGUGCACAGCAGGUUGUAGCUCCCUUUCUCAUUUCGGAAACGAAAUGAGAACCGUUGCUACAAUAAGGCCGUCUGAAAAGAUGUGCCGCAACGCUCUGCCCCUUAAAGCUUCUGCUUUAAGGGGCAUCGUUUAUUUUUUU DNA 1: ACTGACTGGATGTGCACAGCAGTGACCG DNA 2: CGGTCACTGCTGTGCACATCCAGTCAGT | – | 5.48
3 | AAVS1 A59 (mixed) RNA: GCUGGGACUUGGCCAGACACUGGUUGUAGCUCCCUUUCUCAUUUCGGAAACGAAAUGAGAACCGUUGCUACAAUAAGGCCGUCUGAAAAGAUGUGCCGCAACGCUCUGCCCCUUAAAGCUUCUGCUUUAAGGGGCAUCGUUUAUUUUUUU DNA 1: GCTGGGACTTGGCCAGACACTGAGGTCCAG DNA 2: CTGGACCTCAGTGTCTGGCCAAGTCCCAGC | 16.7 | –
4 | AAVS1 TS6 (mixed) RNA: GUGAACUGGAGUGUGACAGCCUGGUUGUAGCUCCCUUUCUCAUUUCGGAAACGAAAUGAGAACCGUUGCUACAAUAAGGCCGUCUGAAAAGAUGUGCCGCAACGCUCUGCCCCUUAAAGCUUCUGCUUUAAGGGGCAUCGUUUAUUUUUUU DNA 1: TGAACTGGAGTGTGACAGCCTGGGGCCCAG DNA 2: CTGGGCCCCAGGCTGTCACACTCCAGTTCA | – | 6.16
5 | VEGFA V36 (mixed) RNA: GAGGAAACGACCUGGGACCACCUGUUGUAGCUCCCUUUCUCAUUUCGGAAACGAAAUGAGAACCGUUGCUACAAUAAGGCCGUCUGAAAAGAUGUGCCGCAACGCUCUGCCCCUUAAAGCUUCUGCUUUAAGGGGCAUCGUUUAUUUUUUU DNA 1: AGGAAACGACCTGGGACCACCTGTTCCCAA DNA 2: TTGGGAACAGGTGGTCCCAGGTCGTTTCCT | 14.6 | –
6 | VEGFA V18 (mixed) RNA: GAGGGGGGUGCCGAGGACCGAAGGUUGUAGCUCCCUUUCUCAUUUCGGAAACGAAAUGAGAACCGUUGCUACAAUAAGGCCGUCUGAAAAGAUGUGCCGCAACGCUCUGCCCCUUAAAGCUUCUGCUUUAAGGGGCAUCGUUUAUUUUUUU DNA 1: AGGGGGGTGCCGAGGACCGAAGGGCACCAA DNA 2: TTGGTGCCCTTCGGTCCTCGGCACCCCCCT | 16.7 | –
7 | VEGFA V60 (mixed) RNA: GAAGGGUGAGUCUCAGGCCACAGGUUGUAGCUCCCUUUCUCAUUUCGGAAACGAAAUGAGAACCGUUGCUACAAUAAGGCCGUCUGAAAAGAUGUGCCGCAACGCUCUGCCCCUUAAAGCUUCUGCUUUAAGGGGCAUCGUUUAUUUUUUU DNA 1: AAGGGTGAGTCTCAGGCCACAGGGACCCAA DNA 2: TTGGGTCCCTGTGGCCTGAGACTCACCCTT | 12.1 | –
8 | VEGFA V21 (mixed) RNA: GUCUCGAGGUAGCCCCAGCCCGGGUUGUAGCUCCCUUUCUCAUUUCGGAAACGAAAUGAGAACCGUUGCUACAAUAAGGCCGUCUGAAAAGAUGUGCCGCAACGCUCUGCCCCUUAAAGCUUCUGCUUUAAGGGGCAUCGUUUAUUUUUUU DNA 1: TCTCGAGGTAGCCCCAGCCCGGGGATCCAG DNA 2: CTGGATCCCCGGGCTGGGGCTACCTCGAGA | 19 | –
9 | GRIN2B G1 (mixed) RNA: GCCCAUCAAGCUGGGCUCCAAGGGUUGUAGCUCCCUUUCUCAUUUCGGAAACGAAAUGAGAACCGUUGCUACAAUAAGGCCGUCUGAAAAGAUGUGCCGCAACGCUCUGCCCCUUAAAGCUUCUGCUUUAAGGGGCAUCGUUUAUUUUUUU DNA 1: CCCATCAAGCTGGGCTCCAAGGAGGGCCAA DNA 2: TTGGCCCTCCTTGGAGCCCAGCTTGATGGG | 18.6 | –
10 | VEGFA V17 (mixed) RNA: GCCGGGACCCUCCACUCCUCCUGGUUGUAGCUCCCUUUCUCAUUUCGGAAACGAAAUGAGAACCGUUGCUACAAUAAGGCCGUCUGAAAAGAUGUGCCGCAACGCUCUGCCCCUUAAAGCUUCUGCUUUAAGGGGCAUCGUUUAUUUUUUU DNA 1: CCGGGACCCTCCACTCCTCCTGGGCCCCAA DNA 2: TTGGGGCCCAGGAGGAGTGGAGGGTCCCGG | 11.6 | –
11 | EMX1 TS14 (mixed) RNA: GCCAAGACGGUGACCAGACUCAAGUUGUAGCUCCCUUUCUCAUUUCGGAAACGAAAUGAGAACCGUUGCUACAAUAAGGCCGUCUGAAAAGAUGUGCCGCAACGCUCUGCCCCUUAAAGCUUCUGCUUUAAGGGGCAUCGUUUAUUUUUUU DNA 1: CCAAGACGGTGACCAGACTCAAGTTACTGA DNA 2: TCAGTAACTTGAGTCTGGTCACCGTCTTGG | – | 16.5
12 | GRIN2B G5 (mixed) RNA: GUUUACAAUGAGAGACAAUACUGGUUGUAGCUCCCUUUCUCAUUUCGGAAACGAAAUGAGAACCGUUGCUACAAUAAGGCCGUCUGAAAAGAUGUGCCGCAACGCUCUGCCCCUUAAAGCUUCUGCUUUAAGGGGCAUCGUUUAUUUUUUU DNA 1: TTTACAATGAGAGACAATACTGGCATCCAA DNA 2: TTGGATGCCAGTATTGTCTCTCATTGTAAA | 18.4 | –
13 | EMX1 E1 (mixed) RNA: GAAUGUGGUGCUUGAGAAGUGGAGUUGUAGCUCCCUUUCUCAUUUCGGAAACGAAAUGAGAACCGUUGCUACAAUAAGGCCGUCUGAAAAGAUGUGCCGCAACGCUCUGCCCCUUAAAGCUUCUGCUUUAAGGGGCAUCGUUUAUUUUUUU DNA 1: AATGTGGTGCTTGAGAAGTGGATGGCCCAA DNA 2: TTGGGCCATCCACTTCTCAAGCACCACATT | 7.8 | –
14 | AAVS1 TS2 (mixed) RNA: GCAGCGCAAAGUGACAAUGGCCAGUUGUAGCUCCCUUUCUCAUUUCGGAAACGAAAUGAGAACCGUUGCUACAAUAAGGCCGUCUGAAAAGAUGUGCCGCAACGCUCUGCCCCUUAAAGCUUCUGCUUUAAGGGGCAUCGUUUAUUUUUUU DNA 1: CAGCGCAAAGTGACAATGGCCAGGGCCAGG DNA 2: CCTGGCCCTGGCCATTGTCACTTTGCGCTG | – | 12.4
15 | EMX1 TS9 (mixed) RNA: GUAAGACGAAUUGUAGAAAGGAGGUUGUAGCUCCCUUUCUCAUUUCGGAAACGAAAUGAGAACCGUUGCUACAAUAAGGCCGUCUGAAAAGAUGUGCCGCAACGCUCUGCCCCUUAAAGCUUCUGCUUUAAGGGGCAUCGUUUAUUUUUUU DNA 1: TAAGACGAATTGTAGAAAGGAGAGATCAC DNA 2: GTGATCTCTCCTTTCTACAATTCGTCTTA | – | 16
